The target in assay [1] is Recombinant FcγRI with C-terminus Biotin (human) (UniProt P12314). In words: BLI; Octet Red; biotinylated FcγR-AviTag loaded on Streptavidin biosensors (~0.5–1.0 nm); antibody in solution, 75 nM-1.17 nM for FcγRI, 5000 to 78.125 nM for the other receptors; PBST (PBS, 0.02% Tween20) pH 7.2; 60 s association, 60 s dissociation; steady state, one-site fit.
Assay [2] has as its target Recombinant FcγRIIIa (F158) with C-terminus Biotin (human) (UniProt P08637). The description is as above.
The target in assay [3] is Recombinant FcγRIIa (R131) with C-terminus Biotin (human). The description is as above.
For assay [4], the target named is Recombinant FcγRIIa (H131) with C-terminus Biotin (human) (UniProt P12318). The description is as above.
Sequence of Recombinant FcγRIIa (H131) with C-terminus Biotin (human) (P12318 34-217): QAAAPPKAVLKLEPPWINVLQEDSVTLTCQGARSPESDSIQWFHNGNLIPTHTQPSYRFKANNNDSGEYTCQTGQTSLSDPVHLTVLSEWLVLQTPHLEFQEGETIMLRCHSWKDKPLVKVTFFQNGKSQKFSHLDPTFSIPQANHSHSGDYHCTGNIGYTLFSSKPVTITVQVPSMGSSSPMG
Assay [5] concerns the target Recombinant FcγRIIIa (V158) with C-terminus Biotin (human). Described as above.
For assay [6], the target named is Recombinant FcγRIIa (R131) with C-terminus Biotin (human) (UniProt P12318).
Sequence of Recombinant FcγRIIa (R131) with C-terminus Biotin (human) (UniProt P12318) (P12318 34-217 H167R): as the sequence (P12318 34-217) above, with H134R counted along it
In assay [7] the target is Recombinant FcγRIIIa (F158) with C-terminus Biotin (human) (UniProt P08637).
Sequence of Recombinant FcγRIIIa (F158) with C-terminus Biotin (human) (P08637 17-208): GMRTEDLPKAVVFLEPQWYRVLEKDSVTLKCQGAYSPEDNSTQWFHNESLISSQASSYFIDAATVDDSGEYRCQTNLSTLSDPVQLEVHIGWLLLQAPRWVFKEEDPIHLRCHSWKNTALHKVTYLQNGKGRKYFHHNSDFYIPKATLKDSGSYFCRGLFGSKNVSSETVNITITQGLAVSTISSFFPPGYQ
Assay [8] has as its target Recombinant FcγRIIb with C-terminus Biotin (human) (UniProt P31994). Put plainly: other; qualitative only.
The target of assay [9] is Recombinant FcγRIIIa (V158) with C-terminus Biotin (human).
Target sequence in this assay (P08637 17-208 F176V): as the sequence (P08637 17-208) above, with F160V counted along it
Assay [10] addresses Recombinant FcγRIIa (H131) with C-terminus Biotin (human) (UniProt P12318).
Assay [11] shares this target. This is another data set of the same source.
Assay [12] concerns the target Recombinant FcγRIIa (R131) with C-terminus Biotin (human) (UniProt P12318). This is another data set of the same source.
Assay [13] addresses Recombinant FcγRIIIa (V158) with C-terminus Biotin (human). The source holds these as a separate data set.
Target sequence in this assay (P08637 17-208 F176V): as the sequence (P08637 17-208) above, with F160V counted along it
In assay [14] the target is Recombinant FcγRIIb with C-terminus Biotin (human) (UniProt P31994).
Sequence of Recombinant FcγRIIb with C-terminus Biotin (human) (P31994 43-217): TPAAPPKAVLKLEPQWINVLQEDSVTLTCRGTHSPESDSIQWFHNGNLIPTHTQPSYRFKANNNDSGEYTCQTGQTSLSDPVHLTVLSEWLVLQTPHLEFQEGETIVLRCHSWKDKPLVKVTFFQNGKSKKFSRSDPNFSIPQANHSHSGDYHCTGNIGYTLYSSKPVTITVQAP
The target of assay [15] is Recombinant FcγRIIIa (F158) with C-terminus Biotin (human) (UniProt P08637). This is another data set of the same source.
In assay [16] the target is Recombinant FcγRIIa (R131) with C-terminus Biotin (human) (UniProt P12318). This is another data set of the same source.
Assay [17] has as its target Recombinant FcγRIIa (H131) with C-terminus Biotin (human) (UniProt P12318). This is another data set of the same source.
The target in assay [18] is Recombinant FcγRIIIa (F158) with C-terminus Biotin (human) (UniProt P08637). The source holds these as a separate data set.
Assay [19] concerns the target Recombinant FcγRI with C-terminus Biotin (human) (UniProt P12314).
The target of assay [20] is Recombinant FcγRIIa (H131) with C-terminus Biotin (human) (UniProt P12318). This is another data set of the same source.
Assay [21] deals with Recombinant FcγRIIIa (V158) with C-terminus Biotin (human). The source holds these as a separate data set.
Target sequence in this assay (P08637 17-208 F176V): as the sequence (P08637 17-208) above, with F160V counted along it
The target of assay [22] is Recombinant FcγRIIa (R131) with C-terminus Biotin (human) (UniProt P12318). The source holds these as a separate data set.
In assay [23] the target is Recombinant FcγRIIIa (F158) with C-terminus Biotin (human) (UniProt P08637). The source holds these as a separate data set.
For assay [24], the target named is Recombinant FcγRIIIa (V158) with C-terminus Biotin (human). The source holds these as a separate data set.
Target sequence in this assay (P08637 17-208 F176V): as the sequence (P08637 17-208) above, with F160V counted along it
Assay [25] deals with Recombinant FcγRIIb with C-terminus Biotin (human) (UniProt P31994). This is another data set of the same source.
Assay [26] has as its target Recombinant FcγRIIa (H131) with C-terminus Biotin (human) (UniProt P12318). This is another data set of the same source.
For assay [27], the target named is Recombinant FcγRIIIa (F158) with C-terminus Biotin (human) (UniProt P08637). This is another data set of the same source.
Assay [28] deals with Recombinant FcγRI with C-terminus Biotin (human) (UniProt P12314). The source holds these as a separate data set.
The target of assay [29] is Recombinant FcγRIIa (R131) with C-terminus Biotin (human) (UniProt P12318). The source holds these as a separate data set.
Assay [30] addresses Recombinant FcγRIIIa (V158) with C-terminus Biotin (human). As to conditions: domain or fragment.
Target sequence in this assay (P08637 17-208 F176V): as the sequence (P08637 17-208) above, with F160V counted along it
In assay [31] the target is Recombinant FcγRI with C-terminus Biotin (human) (UniProt P12314). The following applies: domain or fragment.
The target of assay [32] is Recombinant FcγRIIa (R131) with C-terminus Biotin (human) (UniProt P12318). The following applies: domain or fragment.
Assay [33] has as its target Recombinant FcγRIIIa (F158) with C-terminus Biotin (human) (UniProt P08637). As to conditions: domain or fragment.
Assay [34] has as its target Recombinant FcγRIIa (H131) with C-terminus Biotin (human) (UniProt P12318). The source holds these as a separate data set.
Assay [35] deals with Recombinant FcγRIIIa (F158) with C-terminus Biotin (human) (UniProt P08637). The source holds these as a separate data set.
Assay [36] addresses Recombinant FcγRIIa (R131) with C-terminus Biotin (human) (UniProt P12318). The source holds these as a separate data set.
Assay [37] addresses Recombinant FcγRIIIa (V158) with C-terminus Biotin (human). The source holds these as a separate data set.
Target sequence in this assay (P08637 17-208 F176V): as the sequence (P08637 17-208) above, with F160V counted along it
For assay [38], the target named is Recombinant FcγRIIa (R131) with C-terminus Biotin (human) (UniProt P12318). The source holds these as a separate data set.
Assay [39] deals with Recombinant FcγRIIIa (V158) with C-terminus Biotin (human). The source holds these as a separate data set.
Assay [40] has as its target Recombinant FcγRIIIa (F158) with C-terminus Biotin (human) (UniProt P08637). The source holds these as a separate data set.
Assay [41] addresses Recombinant FcγRIIa (H131) with C-terminus Biotin (human) (UniProt P12318). The source holds these as a separate data set.

Where two headings read alike, the source gives them in different places.

Sequence of Recombinant FcγRI with C-terminus Biotin (human) (P12314 16-292): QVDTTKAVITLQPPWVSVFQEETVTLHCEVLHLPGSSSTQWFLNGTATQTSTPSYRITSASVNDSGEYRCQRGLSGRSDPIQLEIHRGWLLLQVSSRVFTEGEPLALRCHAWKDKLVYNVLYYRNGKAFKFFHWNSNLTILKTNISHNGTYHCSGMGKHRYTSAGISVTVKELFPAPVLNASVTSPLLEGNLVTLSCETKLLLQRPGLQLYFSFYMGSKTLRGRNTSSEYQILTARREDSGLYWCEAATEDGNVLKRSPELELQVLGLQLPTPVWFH
Sequence of Human IgG3 (P01860 whole entry, looked up): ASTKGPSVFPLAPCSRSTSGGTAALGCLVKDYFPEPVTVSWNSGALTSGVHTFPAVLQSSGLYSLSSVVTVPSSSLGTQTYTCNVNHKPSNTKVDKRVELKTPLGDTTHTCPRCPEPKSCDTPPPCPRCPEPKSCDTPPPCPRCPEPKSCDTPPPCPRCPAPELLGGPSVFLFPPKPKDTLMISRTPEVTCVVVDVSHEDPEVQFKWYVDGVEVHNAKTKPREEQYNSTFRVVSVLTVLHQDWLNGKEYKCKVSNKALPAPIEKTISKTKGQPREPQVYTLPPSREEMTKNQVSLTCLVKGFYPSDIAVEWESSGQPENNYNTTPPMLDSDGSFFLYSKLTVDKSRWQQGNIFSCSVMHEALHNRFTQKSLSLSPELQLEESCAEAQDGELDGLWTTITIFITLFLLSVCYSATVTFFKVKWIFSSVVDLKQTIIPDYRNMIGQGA

What is called Kd is the constant that tells how readily two partners part at equilibrium. Regarding Cetuximab (antibody), the Kd came to 17 nM in assay [1], 1300 nM in assay [2], 1400 nM in assay [3] and 970 nM in assay [4].

For the substance Etanercept (Fc fusion), the Kd is 14 nM in assay [1], 400 nM in assay [3], 410 nM in assay [4] and 280 nM in assay [5].

In general, IC50 refers to the concentration at which inhibition is half-maximal. As for Flebogamma (from UniProt P01857), the IC50 in assay [6] was found to be 117 nM; in assay [7], 111 nM; in assay [8], 918 nM; in assay [9], 15.2 nM; in [10], 37.3 nM.

Turning to Gamunex (from UniProt P01857), the IC50 is 63.5 nM in assay [11]; 204 nM in [12]; 17 nM in [13]; 2670 nM in [14]; 110 nM in assay [15].

With Human IgG1 (from UniProt P01857), the IC50 in assay [16] came out at 122 nM; in assay [17] it was 67 nM; in assay [18], 65 nM; in assay [19], 0.23 nM.

Turning to Human IgG3 (from UniProt P01860), the IC50 in assay [20] came out at 40.8 nM; in assay [21], 12.3 nM; in assay [22], 85 nM; in [8], 819 nM; in assay [23], 44.8 nM.

Take “Human IgG (human polyclonal IgG) (from UniProt P01857)”: the IC50 in [24] was 15.7 nM; in [25], 989 nM; in [26] it was 4.64 nM; in [27] it was 99.4 nM; in [28], 0.11 nM; in assay [29] it was 25.8 nM.

With Human IgG Fc Fragment, the IC50 in assay [30] is 81 nM; in assay [31], 0.56 nM; in assay [32], 2280 nM; in [33], 342 nM.

Consider Infliximab (antibody), for which the Kd in [1] came to 21 nM; in assay [2], 350 nM; in assay [3], 340 nM; in assay [4], 230 nM; in assay [5], 120 nM.

NIST mAb standard (antibody): the Kd in assay [1] was 12 nM; in assay [3], 800 nM; in assay [4], 640 nM; in [5], 420 nM.

In the case of NIST mAb standard (from UniProt P01857), the IC50 came to 98.1 nM in assay [34], 466 nM in [35], 261 nM in [36] and 44.5 nM in [37].

In the case of Octagam (from UniProt P01857), the IC50 in [38] is 249 nM; in assay [8], 2080 nM; in assay [39] it was 18.9 nM; in assay [40], 131 nM; in assay [41] it was 80.9 nM.

The record behind these values is publication PMC9287719.
